What is called EC50 is the concentration giving half of the maximal effect.

Read-outs that look alike come from different tables or passages of the source.

In assay [1] the test system is PGE2 / human EP4 receptor in HEK293 Gα16 cells. Description: EP4 bioassay (Ca++ flux, neutralization of PGE2). In kind it is cell-based. Conditions: EP4 bioassay, Ca++ flux. As for the experimental part: The ability of anti-PGE2 antibodies and anti-PGE2 containing DVD-Ig molecules to inhibit the cellular response of PGE2 was determined in a Ca++ flux assay in HEK293 Gα16 cells stably transfected with human EP4 receptor. Cells were plated in black/clear poly-D-lysine plates, (Corning #3667, Corning, N.Y.) and incubated with Ca++-sensitive dye (Molecular Devices) for 90 minutes. Stock PGE2 (in 200 proof ethanol) was diluted with FLIPR buffer (containing 1×HBSS (Invitrogen, Carlsbad, Calif.), 20 mM HEPES (Invitrogen, Carlsbad, Calif.), 0.1% BSA (Sigma, St. Louis, Mo.) and 2.5 mM Probenecid (Sigma, St. Louis, Mo.)). Anti-PGE2 antibodies, DVD-Ig molecules or isotype matched control antibodies were also pre-diluted in FLIPR buffer. 25 μl of PGE2 or pre-incubated PGE2/antibody mixture or pre-incubated PGE2/DVD-Ig molecule mixture was added to the wells pre-plated with cells. A dose response of PGE2 was done by a serial titration of PGE2 and was determined using FLIPR1 or Tetra (Molecular Devices). EC50 was determined using GraphPad Prism 5 (GraftPad Software, La Jolla, Calif.). […] Ca++ flux was monitored using FLIPR1 and data was analyzed using GraphPad Prism 5.
The ability of anti-PGE2 antibodies and anti-PGE2 containing DVD-Ig molecules to inhibit the cellular response of PGE2 was determined in a Ca++ flux assay using stably transfected human EP4 in HEK293 Gα16 cells. Cells were plated in black/clear Poly-D-Lysine plates, (Corning #3667) and incubated with Ca++-sensitive dye (Molecular Devices) for 90 minutes. Stock PGE2 (in 200 proof ethanol) was diluted with FLIPR buffer (containing 1×HBSS, 20 mM HEPES, 0.1% BSA and 2.5 mM Probenecid). Anti-PGE2 antibodies, DVD-Ig molecules or isotype matched control antibodies were also pre-diluted in FLIPR buffer. 25 μl of PGE2 or pre-incubated PGE2/antibody mixture or pre-incubated PGE2/DVD-Ig molecule mixture was added to the wells pre-plated with cells. A dose response of PGE2 was done by a serial titration of PGE2 and was determined using FLIPR1 or Tetra (Molecular Devices). EC50 was determined using GraphPad Prism 5. […] Ca++ flux was monitored using FLIPR1 and data was analyzed using GraphPad Prism 5.

A short description of assay [2]: PGE2-biotinamide ELISA (PGE2 binding). Here is the method:
(§1) Enzyme linked immunosorbent assays to screen for anti-PGE2 antibodies or anti-PGE2 containing DVD-Ig molecules that bind prostaglandin E2 were performed as follows. ELISA plates (Costar 3369, Corning, N.Y.) were coated with 50 μl of anti-host Fc IgG (Sigma, St. Louis, Mo.) at 2 μg/ml in PBS (Invitrogen Carlsbad, Calif.). Following an overnight incubation at 4° C., the plate was blocked with 200 μl Superblock (Pierce #37535, Rockford, Ill.). The IgG or DVD-Ig containing samples were diluted to 1 μg/ml in Assay Buffer (10% Superblock in PBS containing 0.05% Surfactamps (Pierce #37535, Rockford, Ill.) and incubated on the plate at 50 μl/well for 1 hour at room temperature. Following the incubation, plates were washed four times with TTBS (Tween-Tris Buffered Solution). For PGE2 binding, PGE2-biotinamide (Cayman Chemicals, Ann Arbor, Mich.) was diluted to 30 nM and serially diluted in Assay Buffer. The titration curve was added to each IgG or DVD-Ig sample at a volume of 50 μl/well and incubated for 1 hour at room temperature. The plates were washed as previously described and 50 μl/well of 1:5000 dilution of streptavidin polyhrp40 (Fitzgerald Industries, Concord, Mass.) in Assay Buffer was added and incubated for 45 minutes at room temperature. A final wash step was performed and the plates were developed using a single step TMB system (Sigma #T8665, St. Louis, Mo.) and 2N H2SO4. Plates were read at 450 nm on a Molecular Devices Spectramax plate reader (Sunnyvale, Calif.). EC50 was determined using GraphPad Prism 5 (GraphPad Software, La Jolla, Calif.) (FIG. 2).
as §1, with “ELISA” for “Enzyme linked immunosorbent assays to screen for anti-PGE2 antibodies or anti-PGE2 containing DVD-Ig molecules that bind prostaglandin E2 were performed as follows. ELISA”, “(Invitrogen,” for “(Invitrogen”, “IgG” for “IgG or DVD-Ig”, “Solution).” for “Solution). For PGE2 binding,”, “Calif.).” for “Calif.) (FIG. 2).”

Where [3] appears, read: PGE2 VD in N-terminal position, read-out: N-terminal VD PGE2 Neutralization EC50.
[4] abbreviates: PGE2 VD in N-terminal position, read-out: Direct Bind ELISA N-terminal VD EC50.
Where [5] appears, read: PGE2 VD in C-terminal position, read-out: C-terminal VD PGE2 Neutralization EC50.
[6] abbreviates: PGE2 VD in C-terminal position, read-out: Direct Bind ELISA C-terminal VD EC50.

B1: DVD161: DVD-Ig construct listed in Table 4 (antibody)
VH: EVQLVQSGAEVKKPGASVKVSCKASGYTFTKYWLGWVRQAPGQGLEWMGDIYPGYDYTHYNEKFKDRVTLTTDTSTSTAYMELRSLRSDDTAVYYCARSDGSSTYWGQGTLVTVSSASTKGPEVQLVESGGGLVQPGGSLRLSCAASGYTFTNYGMNWVRQAPGKGLEWVGWINTYTGEPTYAADFKRRFTFSLDTSKSTAYLQMNSLRAEDTAVYYCAKYPHYYGSSHWYFDVWGQGTLVTVSS
VL: DVLMTQTPLSLPVTPGEPASISCTSSQNIVHSNGNTYLEWYLQKPGQSPQLLIYKVSNRFSGVPDRFSGSGSGTDFTLKISRVEAEDVGVYYCFQVSHVPYTFGGGTKVEIKRTVAAPDIQMTQSPSSLSASVGDRVTITCSASQDISNYLNWYQQKPGKAPKVLIYFTSSLHSGVPSRFSGSGSGTDFTLTISSLQPEDFATYYCQQYSTVPWTFGQGTKVEIKR
Consider B1, for which the EC50 in assay [1] (setting [3]) amounted to 0.193 nM; in assay [2] (setting [4]), 1.02 nM.

B2: DVD164: DVD-Ig construct listed in Table 4 (antibody)
VH: QVQLQESGPGLVKPSETLSLTCTVSGFSLIGYDLNWIRQPPGKGLEWIGIIWGDGTTDYNSAVKSRVTISKDTSKNQFSLKLSSVTAADTAVYYCARGGYWYATSYYFDYWGQGTLVTVSSASTKGPEVQLVQSGAEVKKPGASVKVSCKASGYTFTKYWLGWVRQAPGQGLEWMGDIYPGYDYTHYNEKFKDRVTLTTDTSTSTAYMELRSLRSDDTAVYYCARSDGSSTYWGQGTLVTVSS
VL: DIQMTQSPSSLSASVGDRVTITCRASQSISNNLNWYQQKPGKAPKLLIYYTSRFHSGVPSRFSGSGSGTDFTFTISSLQPEDIATYYCQQEHTLPYTFGQGTKLEIKRTVAAPDVLMTQTPLSLPVTPGEPASISCTSSQNIVHSNGNTYLEWYLQKPGQSPQLLIYKVSNRFSGVPDRFSGSGSGTDFTLKISRVEAEDVGVYYCFQVSHVPYTFGGGTKVEIKR
As for B2, the EC50 in assay [1] (setting [5]) was found to be 0.079 nM; in assay [2] (setting [6]) it was 1.3 nM.

B3: DVD158: DVD-Ig construct listed in Table 4 (antibody)
VH: QVQLVESGGGVVQPGRSLRLSCAASGFTFSVYGMNWVRQAPGKGLEWVAIIWYDGDNQYYADSVKGRFTISRDNSKNTLYLQMNGLRAEDTAVYYCARDLRTGPFDYWGQGTLVTVSSASTKGPEVQLVQSGAEVKKPGASVKVSCKASGYTFTKYWLGWVRQAPGQGLEWMGDIYPGYDYTHYNEKFKDRVTLTTDTSTSTAYMELRSLRSDDTAVYYCARSDGSSTYWGQGTLVTVSS
VL: EIVLTQSPDFQSVTPKEKVTITCRASQSIGSSLHWYQQKPDQSPKLLIKYASQSFSGVPSRFSGSGSGTDFTLTINSLEAEDAAAYYCHQSSSLPFTFGPGTKVDIKRTVAAPDVLMTQTPLSLPVTPGEPASISCTSSQNIVHSNGNTYLEWYLQKPGQSPQLLIYKVSNRFSGVPDRFSGSGSGTDFTLKISRVEAEDVGVYYCFQVSHVPYTFGGGTKVEIKR
As to B3, the values for the EC50 in assay [1] (setting [5]) and in assay [2] (setting [6]) were 0.21 nM and 1.14 nM, respectively.

B4: DVD162: DVD-Ig construct listed in Table 4 (antibody)
VH: EVQLVESGGGLVQPGGSLRLSCAASGYTFTNYGMNWVRQAPGKGLEWVGWINTYTGEPTYAADFKRRFTFSLDTSKSTAYLQMNSLRAEDTAVYYCAKYPHYYGSSHWYFDVWGQGTLVTVSSASTKGPEVQLVQSGAEVKKPGASVKVSCKASGYTFTKYWLGWVRQAPGQGLEWMGDIYPGYDYTHYNEKFKDRVTLTTDTSTSTAYMELRSLRSDDTAVYYCARSDGSSTYWGQGTLVTVSS
VL: DIQMTQSPSSLSASVGDRVTITCSASQDISNYLNWYQQKPGKAPKVLIYFTSSLHSGVPSRFSGSGSGTDFTLTISSLQPEDFATYYCQQYSTVPWTFGQGTKVEIKRTVAAPDVLMTQTPLSLPVTPGEPASISCTSSQNIVHSNGNTYLEWYLQKPGQSPQLLIYKVSNRFSGVPDRFSGSGSGTDFTLKISRVEAEDVGVYYCFQVSHVPYTFGGGTKVEIKR
For the molecule B4, the EC50 in assay [1] (setting [5]) is 0.067 nM; in assay [2] (setting [6]) it was 1.32 nM.

B5: DVD157: DVD-Ig construct listed in Table 4 (antibody)
VH: EVQLVQSGAEVKKPGASVKVSCKASGYTFTKYWLGWVRQAPGQGLEWMGDIYPGYDYTHYNEKFKDRVTLTTDTSTSTAYMELRSLRSDDTAVYYCARSDGSSTYWGQGTLVTVSSASTKGPQVQLVESGGGVVQPGRSLRLSCAASGFTFSVYGMNWVRQAPGKGLEWVAIIWYDGDNQYYADSVKGRFTISRDNSKNTLYLQMNGLRAEDTAVYYCARDLRTGPFDYWGQGTLVTVSS
VL: DVLMTQTPLSLPVTPGEPASISCTSSQNIVHSNGNTYLEWYLQKPGQSPQLLIYKVSNRFSGVPDRFSGSGSGTDFTLKISRVEAEDVGVYYCFQVSHVPYTFGGGTKVEIKRTVAAPEIVLTQSPDFQSVTPKEKVTITCRASQSIGSSLHWYQQKPDQSPKLLIKYASQSFSGVPSRFSGSGSGTDFTLTINSLEAEDAAAYYCHQSSSLPFTFGPGTKVDIKR
For B5, the EC50 in assay [1] (setting [3]) is 0.217 nM; in assay [2] (setting [4]), 1.23 nM.

B6: AB048: parent antibody, PGE2, SEQ ID 48/49 (antibody, V domains shown)
VH: EVQLVQSGAEVKKPGASVKVSCKASGYTFTKYWLGWVRQAPGQGLEWMGDIYPGYDYTHYNEKFKDRVTLTTDTSTSTAYMELRSLRSDDTAVYYCARSDGSSTYWGQGTLVTVSS
VL: DVLMTQTPLSLPVTPGEPASISCTSSQNIVHSNGNTYLEWYLQKPGQSPQLLIYKVSNRFSGVPDRFSGSGSGTDFTLKISRVEAEDVGVYYCFQVSHVPYTFGGGTKVEIKR
With B6, the EC50 in assay [1] (parent antibody (cell spans both VD columns), read-out: PGE2 Neutralization EC50) came out at 0.017 nM; in assay [2] (parent antibody (cell spans both VD columns), read-out: Direct Bind ELISA EC50 (PGE2 binding)), 1.49 nM.

Values taken from patent US8822645B2, “Prostaglandin E2 dual variable domain immunoglobulins and uses thereof” (AbbVie Inc., priority 2008, dated 2014).
